Data on one molecule can be found in patent publication US20080085860A1 (Eli Lilly, published 2008).

* marks the point of attachment. Hexanoyl = CCCCCC(=O)*

The assay addresses T1, Rat VPAC1 receptor (rat, UniProt P30083 31-459).
T1 sequence (looked up): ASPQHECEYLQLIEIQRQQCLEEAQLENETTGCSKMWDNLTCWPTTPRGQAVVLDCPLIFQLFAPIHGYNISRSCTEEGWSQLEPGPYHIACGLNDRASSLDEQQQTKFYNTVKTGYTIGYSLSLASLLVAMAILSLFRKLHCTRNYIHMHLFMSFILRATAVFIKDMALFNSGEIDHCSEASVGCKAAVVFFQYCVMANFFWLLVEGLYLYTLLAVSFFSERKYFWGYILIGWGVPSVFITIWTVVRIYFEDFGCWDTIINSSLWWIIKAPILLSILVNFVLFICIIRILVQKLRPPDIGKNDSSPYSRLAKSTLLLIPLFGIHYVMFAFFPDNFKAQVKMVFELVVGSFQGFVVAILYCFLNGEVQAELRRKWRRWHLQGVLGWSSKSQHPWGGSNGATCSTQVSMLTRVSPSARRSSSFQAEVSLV
The experiment in a line: cell-based or functional assay.

B1: P136: C6-…(WPEG40K)-NH2 (SEQ ID NO: 44) (peptide)
peptide: Hexanoyl-HSDAVFTDNYTRLRKQVAAKKYLQSIKNSRTSPPPK-NH2
modifications: not fully specified (residue 36); printed as C6-HSDAVFTDNYTRLRKQVAAKKYLQSIKNSRTSPPPK(WPEG40K)-NH2
Consider B1, for which the “EC50 (nm), in vitro potency using DiscoveRx (cAMP)” value worked out at 15 nM.
